Results on one substance are retold here after PMC11750101.

The target in the assay is RBD-HR/trimer (SARS-CoV-2) (UniProt P0DTC2). Put plainly: SEC. A general note: In gel filtration, larger molecules generally elute earlier.

A word on the stoichiometry N: it is a count of units in the complex or per binding partner. For the substance RBD-HR/trimer (from UniProt P0DTC2), the stoichiometry N worked out at 3.
